Test results as given in patent US20260167721A1 (ABLEXIS, published 2026).

B1: CD3 × CD33-BspAb123 (bispecific antibody)
chain 1: QTVVTQEPSFSVSPGGTVTLTCGLNSGSVSTSYYPSWYQQTPGQTPRTLIYSTNTRSSGVPDRFSGSILGNKAALTITGAQADDESDYYCVLYMGSGIWVFGCGTKLTVLGGGGSGGGGSGGGGSGGGGSQVQLVQSGAEVKKPGASLKVSCKASGYTFTSYYMHWVRQAPGQCLEWMGIINPSNGNTISAQKFQGRVTMTRDTSTSTVYMEMSSLRSEDTAVYYCVRSWGYYVMDVWGQGTTVTVSSDKTHTCPPCPAPEFEGGPSVFLFPPKPKDTLMISRTPEVTCVVVDVSHEDPEVKFNWYVDGVEVHNAKTKPREEQYNSTYRVVSVLTVLHQDWLNGKEYKCKVSNKALPASIEKTISKAKGQPREPQVYTLPPCREEMTKNQVSLWCLVKGFYPSDIAVEWESNGQPENNYKTTPPVLDSDGSFFLYSKLTVDKSRWQQGNVFSCSVMHEALHNHYTQKSLSLSPGK
chain 2: EVQLVQSGAEVKKPGSSVKVSCKASGYTITDSNIHWVRQAPGQSLEWIGYIYPYNGGTDYNQKFKNRATLTVDNPTNTAYMELSSLRSEDTAFYYCVNGNPWLAYWGQGTLVTVSSASTKGPSVFPLAPSSKSTSGGTAALGCLVKDYFPEPVTVSWNSGALTSGVHTFPAVLQSSGLYSLSSVVTVPSSSLGTQTYICNVNHKPSNTKVDKRVEPKSCDKTHTCPPCPAPEFEGGPSVFLFPPKPKDTLMISRTPEVTCVVVDVSHEDPEVKFNWYVDGVEVHNAKTKPREEQYNSTYRVVSVLTVLHQDWLNGKEYKCKVSNKALPASIEKTISKAKGQPREPQVCTLPPSREEMTKNQVSLSCAVKGFYPSDIAVEWESNGQPENNYKTTPPVLDSDGSFFLVSKLTVDKSRWQQGNVFSCSVMHEALHNRFTQKSLSLSPGK
chain 3: DIQLTQSPSTLSASVGDRVTITCRASESLDNYGIRFLTWFQQKPGKAPKLLMYAASNQGSGVPSRFSGSGSGTEFTLTISSLQPDDFATYYCQQTKEVPWSFGQGTKVEVKRTVAAPSVFIFPPSDEQLKSGTASVVCLLNNFYPREAKVQWKVDNALQSGNSQESVTEQDSKDSTYSLSSTLTLSKADYEKHKVYACEVTHQGLSSPVTKSFNRGEC
B2: CD3 × CD33-BspAb125 (bispecific antibody)
chain 1: not shown
chain 2: B1 chain 2
chain 3: B1 chain 3

Columns and labels:
recombinant CD3 proteins [1] = biological target: T1, recombinant CD3 proteins (UniProt P07766 23-126); assay: Octet BLI, recombinant CD3; Full R^2 0.951
T1 construct: elsewhere it uses human CD3 E/D and E/G heterodimers

recombinant CD3 proteins [2] = biological target: T1, recombinant CD3 proteins; assay: Octet BLI, recombinant CD3; Full R^2 0.999

T1 sequence (P07766 23-126): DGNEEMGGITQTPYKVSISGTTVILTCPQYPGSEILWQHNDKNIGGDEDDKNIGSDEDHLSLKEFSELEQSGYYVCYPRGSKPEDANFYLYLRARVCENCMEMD

Row | Binder | Kd (recombinant CD3 proteins [1]) [nM] | koff (recombinant CD3 proteins [1]) [s⁻¹] | kon (recombinant CD3 proteins [1]) [M⁻¹ s⁻¹] | Kd (recombinant CD3 proteins [2]) [nM] | koff (recombinant CD3 proteins [2]) [s⁻¹] | kon (recombinant CD3 proteins [2]) [M⁻¹ s⁻¹]
1 | B1 | 12 | 0.00103 | 85500 | – | – | –
2 | B2 | – | – | – | 319 | 0.00375 | 11800
